Measurements from patent US20080274950A1 (BABRAHAM INSTITUTE, published 2008).
Substitutions are numbered along the chain they refer to. Names and notes keep the numbering of the source. One block for each molecule: values may come before it.

Tests used:
[1] = target: human N-cadherin naturally expressed on DX3 melanoma cells (human) (UniProt P19022); assay: adhesion of DX3 cells to coated monomeric N-cadherin-Fc, in oxidising buffer and in 10 mM DTT
[2] = target: the molecule itself; assay: disulphide-bonded cis-dimers on the cell surface; non-reducing SDS-PAGE and immunoblot
[3] = target: T1, human N-cadherin naturally expressed on DX3 melanoma cells (human, UniProt P19022 160-906); assay: adhesion of DX3 cells to coated monomeric N-cadherin-Fc, oxidising buffer
T1 construct: also called DX3 Cells; N-cadherin+ve DX3 melanoma cells
T1 sequence: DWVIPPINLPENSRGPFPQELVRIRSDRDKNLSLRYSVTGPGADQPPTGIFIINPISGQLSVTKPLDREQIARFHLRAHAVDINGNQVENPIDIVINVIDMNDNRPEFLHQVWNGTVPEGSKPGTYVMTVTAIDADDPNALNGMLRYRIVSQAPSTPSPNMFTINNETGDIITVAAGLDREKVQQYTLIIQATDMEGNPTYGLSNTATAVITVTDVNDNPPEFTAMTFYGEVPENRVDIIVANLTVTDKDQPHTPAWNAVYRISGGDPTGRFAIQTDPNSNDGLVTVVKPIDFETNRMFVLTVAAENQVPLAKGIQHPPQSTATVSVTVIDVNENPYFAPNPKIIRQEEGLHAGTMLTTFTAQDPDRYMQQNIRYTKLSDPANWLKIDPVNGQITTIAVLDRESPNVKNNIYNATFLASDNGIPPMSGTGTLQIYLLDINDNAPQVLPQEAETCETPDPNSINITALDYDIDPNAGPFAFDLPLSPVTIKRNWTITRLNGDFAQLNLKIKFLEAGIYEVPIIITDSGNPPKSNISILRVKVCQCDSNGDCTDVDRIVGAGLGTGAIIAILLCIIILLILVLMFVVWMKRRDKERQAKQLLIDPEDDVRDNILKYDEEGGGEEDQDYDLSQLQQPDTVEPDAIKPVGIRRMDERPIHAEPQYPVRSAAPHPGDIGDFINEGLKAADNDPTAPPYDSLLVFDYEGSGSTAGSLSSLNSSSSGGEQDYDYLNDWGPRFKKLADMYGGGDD
Protocol: Monomeric or dimeric N-cadherin-Fc fusion protein in Cos cell supernatants was added as described for the ELISA assay. DX3 Cells, a human melanoma cell line which expresses N-cadherin, were dissociated with Cell Dissociation Solution (Sigma, code C5789), resuspended in HBSS with 2% FCS and assessed for adhesion to wild type or mutant N-cadherin-Fc as previously described (Corps et al., 2001). Microscopic examination established that the cells were present as a single cell suspension as they settled onto the plate. For assays conducted in reducing conditions, 10 mM DTT was present during the adhesion and washing steps. Determinations were conducted in triplicate and results are presented as mean +/−sem.

[4] = target: T2, full length chicken N-cadherin with the N-terminus extended by two glycine residues (GG) expressed on K562 … (chicken, UniProt P10288 165-912); assay: adhesion of K562 transfectants to coated N-cadherin Fc
T2 construct: whole, on cells; also called cells expressing the GG N-terminal extension mutant; K562 GG
T2 sequence: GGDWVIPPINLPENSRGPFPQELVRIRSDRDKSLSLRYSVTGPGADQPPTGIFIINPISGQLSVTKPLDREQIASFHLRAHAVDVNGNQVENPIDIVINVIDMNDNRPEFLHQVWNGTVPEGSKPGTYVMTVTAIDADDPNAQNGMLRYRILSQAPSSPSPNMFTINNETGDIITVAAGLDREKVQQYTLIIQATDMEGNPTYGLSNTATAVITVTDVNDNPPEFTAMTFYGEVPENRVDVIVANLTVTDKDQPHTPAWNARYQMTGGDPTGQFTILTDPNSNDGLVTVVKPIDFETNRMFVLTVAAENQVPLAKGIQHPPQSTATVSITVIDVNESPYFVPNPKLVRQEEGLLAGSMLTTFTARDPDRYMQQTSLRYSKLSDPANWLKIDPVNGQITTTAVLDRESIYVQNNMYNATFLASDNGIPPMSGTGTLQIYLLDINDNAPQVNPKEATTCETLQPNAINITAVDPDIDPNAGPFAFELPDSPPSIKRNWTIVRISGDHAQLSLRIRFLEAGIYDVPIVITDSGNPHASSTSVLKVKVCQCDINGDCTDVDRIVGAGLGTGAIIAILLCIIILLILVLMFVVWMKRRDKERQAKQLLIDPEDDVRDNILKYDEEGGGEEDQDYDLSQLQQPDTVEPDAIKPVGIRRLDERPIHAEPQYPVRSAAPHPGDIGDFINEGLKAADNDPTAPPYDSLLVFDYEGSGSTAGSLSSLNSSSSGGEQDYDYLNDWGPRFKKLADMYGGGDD
Protocol: Adhesion tests were conducted substantially as described in Example 1. Briefly, K562 Cells or L cells transfected with wild type or mutant N-cadherin were allowed to settle for 45 minutes at 37° C. onto N-cadherin Fc fusion proteins coated at 1 μg/ml to a 96 well plate. Non-adherent cells were then washed off and residual adherent cells were quantitated by measuring acid phosphatase activity. Assays were conducted in quadruplicate and results are expressed as % cells adhering +/−SEM.

[5] = target: the molecule itself; assay: bead aggregation assay, 1.25 mM CaCl2
Protocol: Dynabeads (Dynal Biotech) coupled to Protein A were coated with N-cadherin Fc at 1 μg/ml in calcium and magnesium-free HBSS containing 0.1% Tween 20, 1% FCS and 4 mM EDTA. Eppendorf tubes containing beads and fusion protein were rotated slowly for 1 hour at room temperature to allow binding to take place. The beads were then washed in the above assay buffer lacking EDTA and then resuspended in the same buffer supplemented with 1.25 mM CaCl₂. Beads were allowed to aggregate in a volume of 100 μl for 2 hours at 37° C. by slow rotation, in an eppendorf tube, at approximately 20 rpm. Aggregation was then assessed by light microscopy.
In the experiments described so far in this example, disruption of the salt bridge prevented intramolecular docking of Trp 2 in one or both components of the dimer. In an alternative strategy to prevent intramolecular docking, we removed Trp2 by introducing the mutation W2G or blocked the hydrophobic acceptor pocket with an isoleucine side chain projecting into the cavity using the mutation A801. N-cadherin Fc fusion proteins with these mutations were then tested against our panel of K562 transfectants (FIG. 17a). In keeping with the explanation given in FIG. 5, the W2G mutant acted as a strand acceptor and therefore adhered strongly to the E89A mutant whereas the A80I mutant was a strand donor and adhered to the GG extension mutant. […] In contrast, beads coated with the W2G or A801 mutants and tested separately clustered in twos and threes, whereas beads coated with the negative control mutant, D134A, were entirely monodisperse. To test whether all five extracellular domains of N-cadherin (EC1-EC5) are necessary for the strong adhesive interaction between the complementary mutants, we compared the adhesive activity of the W2G mutant prepared as a full length (EC1-EC5) Fc fusion protein with that of the same mutant prepared as a truncated construct containing only cadherin domains EC1 and EC2.

Molecule: wild type monomeric chicken N-cadherin-Fc (mutations F405A and Y407A in the CH3 domain of Fc) (from UniProt P10288 165-729) (Fc fusion)
% cells adhering [1]: 65%

B1: full length chicken N-cadherin with the mutation D1C expressed on K562 cells (receptor, UniProt P10288 165-912, looked up)
chain: CWVIPPINLPENSRGPFPQELVRIRSDRDKSLSLRYSVTGPGADQPPTGIFIINPISGQLSVTKPLDREQIASFHLRAHAVDVNGNQVENPIDIVINVIDMNDNRPEFLHQVWNGTVPEGSKPGTYVMTVTAIDADDPNAQNGMLRYRILSQAPSSPSPNMFTINNETGDIITVAAGLDREKVQQYTLIIQATDMEGNPTYGLSNTATAVITVTDVNDNPPEFTAMTFYGEVPENRVDVIVANLTVTDKDQPHTPAWNARYQMTGGDPTGQFTILTDPNSNDGLVTVVKPIDFETNRMFVLTVAAENQVPLAKGIQHPPQSTATVSITVIDVNESPYFVPNPKLVRQEEGLLAGSMLTTFTARDPDRYMQQTSLRYSKLSDPANWLKIDPVNGQITTTAVLDRESIYVQNNMYNATFLASDNGIPPMSGTGTLQIYLLDINDNAPQVNPKEATTCETLQPNAINITAVDPDIDPNAGPFAFELPDSPPSIKRNWTIVRISGDHAQLSLRIRFLEAGIYDVPIVITDSGNPHASSTSVLKVKVCQCDINGDCTDVDRIVGAGLGTGAIIAILLCIIILLILVLMFVVWMKRRDKERQAKQLLIDPEDDVRDNILKYDEEGGGEEDQDYDLSQLQQPDTVEPDAIKPVGIRRLDERPIHAEPQYPVRSAAPHPGDIGDFINEGLKAADNDPTAPPYDSLLVFDYEGSGSTAGSLSSLNSSSSGGEQDYDYLNDWGPRFKKLADMYGGGDD
notes: whole, on cells; also called D1C cells; K562 D1C
binding result [2]: binds

B2: full length chicken N-cadherin with the mutation D27C expressed on K562 cells (receptor, UniProt P10288 165-912, looked up)
chain: B1 chain with C1D, D27C
notes: whole, on cells; also called K562 D27C
binding result [2]: binds

B5: chicken N-cadherin Fc fusion protein with the mutations E89A and D134A (Fc fusion, UniProt P10288 165-728, looked up)
chain: DWVIPPINLPENSRGPFPQELVRIRSDRDKSLSLRYSVTGPGADQPPTGIFIINPISGQLSVTKPLDREQIASFHLRAHAVDVNGNQVANPIDIVINVIDMNDNRPEFLHQVWNGTVPEGSKPGTYVMTVTAIAADDPNAQNGMLRYRILSQAPSSPSPNMFTINNETGDIITVAAGLDREKVQQYTLIIQATDMEGNPTYGLSNTATAVITVTDVNDNPPEFTAMTFYGEVPENRVDVIVANLTVTDKDQPHTPAWNARYQMTGGDPTGQFTILTDPNSNDGLVTVVKPIDFETNRMFVLTVAAENQVPLAKGIQHPPQSTATVSITVIDVNESPYFVPNPKLVRQEEGLLAGSMLTTFTARDPDRYMQQTSLRYSKLSDPANWLKIDPVNGQITTTAVLDRESIYVQNNMYNATFLASDNGIPPMSGTGTLQIYLLDINDNAPQVNPKEATTCETLQPNAINITAVDPDIDPNAGPFAFELPDSPPSIKRNWTIVRISGDHAQLSLRIRFLEAGIYDVPIVITDSGNPHASSTSVLKVKVCQCDINGDCTDVDRIVGAGLGT
notes: extracellular domain; also called D134A in combination with E89A; not shown: hinge region, CH2 and CH3 domains of human IgG1 heavy chain (vector pIgSig)
binding result [4]: no binding (tested: Fc fusion protein coated at 1 µg/ml)

The next lines start with results.

binding result [3]: binds
B3: monomeric chicken N-cadherin-Fc with the mutation D27C (Fc fusion, UniProt P10288 165-728, looked up)
chain: B5 chain with D27C, A89E, A134D
notes: extracellular domain; not shown: hinge region, CH2 and CH3 domains of human IgG1 heavy chain (vector pIgSig)

binding result [4]: binds
B4: chicken N-cadherin Fc fusion protein with the pocket-blocking mutation A80I (Fc fusion, UniProt P10288 165-728, looked up)
chain: B5 chain with A80I, A89E, A134D
notes: extracellular domain; also called A80I mutant; not shown: hinge region, CH2 and CH3 domains of human IgG1 heavy chain (vector pIgSig)
binding result [5]: binds
